Measured values as given in the supplement of paper PMC10065799, “High-throughput profiling of sequence recognition by tyrosine kinases and SH2 domains using bacterial peptide display” (eLife, 2023).

The sequences below were run on Fer (mouse) (assay: phosphorylation enrichment, bacterial display (enrichment ratio); higher = better substrate or ligand; peptides without Tyr show the background).
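Note: 11-residue human phosphosite peptides and single-mutation variants displayed on the E. coli surface, counted by deep sequencing, each peptide's frequency after selection divided by its frequency in the unselected input library; frequency after pTyr selection over input frequency; kinase dosed for 20-30% of maximal phosphorylation in three min.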

Sequence | phosphorylation enrichment
IRKVLYANNVM [ACTA1_Y296_D294V] | 0.337
LERFIYNRQEF [HLA-DPB1_Y59_E62Q_YF] | 0.427
ATDLAYFLVRK [ASL_Y375_YF] | 0.509
QRRLIYRCQVG [NR2E3_Y81_R76Q] | 0.643
ARRMEYLASQK [FGFR2_Y616_G613R] | 0.293
SDYYAYSPVRE [H6PD_Y449] | 12.9
SHMVNYQPYRK [TEX37_Y25_D24N] | 0.293
GEDLSYGDVPP [IRS1_Y151] | 0.709
VLRRVYVDFEG [KMT2B_Y1707] | 0.403
MFRAGYDTKQE [F10_Y407_C404R] | 0.391
DSSIRYLQEIY [FGG_Y135] | 0.549
PLDGEYFTLRI [TP53_Y327_Q331R] | 0.971
HRGCLYLAIEF [TEK_Y899_Y897C_YF] | 0.511
LESILYESSVV [TRPV4_Y91_T89I] | 7.52
IGVGSYSVCKR [RPS6KA3_Y433] | 0.385
LPKVSYMKAID [GLRA1_Y307_V308M] | 0.65
PPPELYFVKVD [TERT_Y707] | 0.626

Sequence | phosphorylation enrichment
YYSSEYHCVGG [CTSC_Y345_Y347C] | 1.26
DKMEAYNINET [TEKT4_Y210_D213N] | 0.489
NRLTDYFEPLL [BBS10_Y536_YF] | 0.468
KENITYMKSEQ [L1TD1_Y24_R27S] | 0.32
QLLIEYPPEEV [ZZZ3_Y670_K669E] | 0.671
MRAIIYNSSTA [PLEKHA7_Y243_L241I] | 0.528
LQRVQCDLQKA [DSP_Y1512_Y1512C] | 0.809
RLLVVYPWNQR [HBB_Y36_T39N] | 0.595
CLRIDYERVSQ [DSP_Y1542_R1537C] | 0.674
SSSGGYGGGFG [KRT19_Y61_A60G_YF] | 0.358
LVMFFYAIFGM [SCN1A_Y1684_I1683F] | 0.708
KELAPYDENWF [RPS19_Y48] | 0.53
ESPGLCGFLNV [BCR_Y910_Y910C] | 0.476
CSRRFYQLTKL [AR_Y858] | 0.468
QRRNVYFFSFL [PTEN_Y176_Y174N_YF] | 0.398
LGKLIYPVGFW [NTHL1_Y177] | 0.557

Each sequence was assayed against Fes (UniProt P07332) in the same assay as above.
Fes, sequence (P07332 whole entry, looked up): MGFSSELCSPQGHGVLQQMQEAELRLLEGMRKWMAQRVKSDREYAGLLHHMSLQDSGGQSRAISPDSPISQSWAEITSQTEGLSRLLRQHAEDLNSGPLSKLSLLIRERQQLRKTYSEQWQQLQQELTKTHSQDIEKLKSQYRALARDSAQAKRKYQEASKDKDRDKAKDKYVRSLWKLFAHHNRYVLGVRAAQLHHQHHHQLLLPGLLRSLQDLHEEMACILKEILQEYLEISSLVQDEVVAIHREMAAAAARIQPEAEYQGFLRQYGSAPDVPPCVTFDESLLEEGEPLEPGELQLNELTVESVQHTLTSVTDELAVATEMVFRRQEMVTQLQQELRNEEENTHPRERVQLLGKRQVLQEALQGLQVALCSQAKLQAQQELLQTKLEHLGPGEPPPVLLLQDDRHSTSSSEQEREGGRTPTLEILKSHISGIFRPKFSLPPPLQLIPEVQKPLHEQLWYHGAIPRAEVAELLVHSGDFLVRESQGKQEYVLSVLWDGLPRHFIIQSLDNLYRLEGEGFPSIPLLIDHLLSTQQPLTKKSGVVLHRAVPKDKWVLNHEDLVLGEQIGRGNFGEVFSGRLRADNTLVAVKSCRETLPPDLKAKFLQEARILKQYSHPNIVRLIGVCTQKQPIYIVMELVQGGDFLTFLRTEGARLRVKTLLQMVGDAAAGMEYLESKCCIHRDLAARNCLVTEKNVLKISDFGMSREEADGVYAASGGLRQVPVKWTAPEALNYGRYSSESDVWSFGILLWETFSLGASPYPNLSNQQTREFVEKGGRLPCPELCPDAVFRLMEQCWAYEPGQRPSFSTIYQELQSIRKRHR

Sequence | phosphorylation enrichment
IRKVLYANNVM [ACTA1_Y296_D294V] | 0.599
LERFIYNRQEF [HLA-DPB1_Y59_E62Q_YF] | 0.87
ATDLAYFLVRK [ASL_Y375_YF] | 1.6
QRRLIYRCQVG [NR2E3_Y81_R76Q] | 0.861
ARRMEYLASQK [FGFR2_Y616_G613R] | 0.557
SDYYAYSPVRE [H6PD_Y449] | 0.832
SHMVNYQPYRK [TEX37_Y25_D24N] | 0.49
GEDLSYGDVPP [IRS1_Y151] | 1.28
VLRRVYVDFEG [KMT2B_Y1707] | 0.909
MFRAGYDTKQE [F10_Y407_C404R] | 0.761
DSSIRYLQEIY [FGG_Y135] | 1.02
PLDGEYFTLRI [TP53_Y327_Q331R] | 2.19
HRGCLYLAIEF [TEK_Y899_Y897C_YF] | 1.37
LESILYESSVV [TRPV4_Y91_T89I] | 1.39
IGVGSYSVCKR [RPS6KA3_Y433] | 0.878
LPKVSYMKAID [GLRA1_Y307_V308M] | 0.911
PPPELYFVKVD [TERT_Y707] | 1.81

Sequence | phosphorylation enrichment
YYSSEYHCVGG [CTSC_Y345_Y347C] | 1.04
DKMEAYNINET [TEKT4_Y210_D213N] | 1.27
NRLTDYFEPLL [BBS10_Y536_YF] | 0.993
KENITYMKSEQ [L1TD1_Y24_R27S] | 0.767
QLLIEYPPEEV [ZZZ3_Y670_K669E] | 1.31
MRAIIYNSSTA [PLEKHA7_Y243_L241I] | 0.838
LQRVQCDLQKA [DSP_Y1512_Y1512C] | 1.16
RLLVVYPWNQR [HBB_Y36_T39N] | 1.4
CLRIDYERVSQ [DSP_Y1542_R1537C] | 1.57
SSSGGYGGGFG [KRT19_Y61_A60G_YF] | 0.593
LVMFFYAIFGM [SCN1A_Y1684_I1683F] | 1.23
KELAPYDENWF [RPS19_Y48] | 1.12
ESPGLCGFLNV [BCR_Y910_Y910C] | 1.38
CSRRFYQLTKL [AR_Y858] | 0.718
QRRNVYFFSFL [PTEN_Y176_Y174N_YF] | 1.42
LGKLIYPVGFW [NTHL1_Y177] | 1.87

The sequences below were run against EPHB2 (UniProt P29323) in the same assay as above.
EPHB2, sequence (P29323 whole entry, looked up): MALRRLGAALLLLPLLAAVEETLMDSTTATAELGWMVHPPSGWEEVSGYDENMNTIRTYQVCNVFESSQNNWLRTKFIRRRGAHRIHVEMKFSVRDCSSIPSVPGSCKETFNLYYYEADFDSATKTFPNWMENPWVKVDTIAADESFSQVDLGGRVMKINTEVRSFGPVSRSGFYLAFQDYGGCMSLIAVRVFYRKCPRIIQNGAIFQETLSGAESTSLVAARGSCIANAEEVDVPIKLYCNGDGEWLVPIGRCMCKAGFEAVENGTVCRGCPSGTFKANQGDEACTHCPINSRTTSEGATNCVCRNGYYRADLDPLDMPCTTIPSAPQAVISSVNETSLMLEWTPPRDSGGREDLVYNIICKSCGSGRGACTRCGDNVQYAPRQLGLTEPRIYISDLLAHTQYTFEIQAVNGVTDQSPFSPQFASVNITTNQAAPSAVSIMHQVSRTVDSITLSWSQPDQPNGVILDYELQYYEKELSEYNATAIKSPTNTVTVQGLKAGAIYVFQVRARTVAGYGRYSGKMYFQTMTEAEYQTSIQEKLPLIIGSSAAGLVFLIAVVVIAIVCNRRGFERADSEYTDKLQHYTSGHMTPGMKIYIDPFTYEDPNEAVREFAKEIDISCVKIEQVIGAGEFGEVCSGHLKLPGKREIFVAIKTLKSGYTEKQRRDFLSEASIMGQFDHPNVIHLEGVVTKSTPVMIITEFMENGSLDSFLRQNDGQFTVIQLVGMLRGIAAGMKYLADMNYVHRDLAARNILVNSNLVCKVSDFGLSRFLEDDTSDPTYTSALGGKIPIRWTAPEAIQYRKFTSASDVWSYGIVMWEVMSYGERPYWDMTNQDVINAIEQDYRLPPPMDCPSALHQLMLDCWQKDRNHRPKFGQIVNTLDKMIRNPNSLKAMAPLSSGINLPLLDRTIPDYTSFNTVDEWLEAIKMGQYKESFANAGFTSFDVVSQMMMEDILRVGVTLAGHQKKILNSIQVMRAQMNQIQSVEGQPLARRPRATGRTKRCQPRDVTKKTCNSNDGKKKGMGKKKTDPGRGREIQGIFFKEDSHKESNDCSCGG

Sequence | phosphorylation enrichment
IRKVLYANNVM [ACTA1_Y296_D294V] | 0.368
LERFIYNRQEF [HLA-DPB1_Y59_E62Q_YF] | 0.551
ATDLAYFLVRK [ASL_Y375_YF] | 0.872
QRRLIYRCQVG [NR2E3_Y81_R76Q] | 0.728
ARRMEYLASQK [FGFR2_Y616_G613R] | 0.558
SDYYAYSPVRE [H6PD_Y449] | 23.7
SHMVNYQPYRK [TEX37_Y25_D24N] | 0.332
GEDLSYGDVPP [IRS1_Y151] | 0.534
VLRRVYVDFEG [KMT2B_Y1707] | 0.518
MFRAGYDTKQE [F10_Y407_C404R] | 0.447
DSSIRYLQEIY [FGG_Y135] | 0.585
PLDGEYFTLRI [TP53_Y327_Q331R] | 1.04
HRGCLYLAIEF [TEK_Y899_Y897C_YF] | 1.81
LESILYESSVV [TRPV4_Y91_T89I] | 0.719
IGVGSYSVCKR [RPS6KA3_Y433] | 0.412
LPKVSYMKAID [GLRA1_Y307_V308M] | 0.711
PPPELYFVKVD [TERT_Y707] | 0.49

Sequence | phosphorylation enrichment
YYSSEYHCVGG [CTSC_Y345_Y347C] | 8.59
DKMEAYNINET [TEKT4_Y210_D213N] | 0.535
NRLTDYFEPLL [BBS10_Y536_YF] | 1.16
KENITYMKSEQ [L1TD1_Y24_R27S] | 0.426
QLLIEYPPEEV [ZZZ3_Y670_K669E] | 0.933
MRAIIYNSSTA [PLEKHA7_Y243_L241I] | 0.609
LQRVQCDLQKA [DSP_Y1512_Y1512C] | 0.827
RLLVVYPWNQR [HBB_Y36_T39N] | 0.752
CLRIDYERVSQ [DSP_Y1542_R1537C] | 1.03
SSSGGYGGGFG [KRT19_Y61_A60G_YF] | 0.346
LVMFFYAIFGM [SCN1A_Y1684_I1683F] | 0.566
KELAPYDENWF [RPS19_Y48] | 0.618
ESPGLCGFLNV [BCR_Y910_Y910C] | 0.617
CSRRFYQLTKL [AR_Y858] | 0.548
QRRNVYFFSFL [PTEN_Y176_Y174N_YF] | 0.475
LGKLIYPVGFW [NTHL1_Y177] | 1.02

Each sequence was assayed against Hck (UniProt P08631) in the same assay as above.
Hck, sequence (P08631 whole entry, looked up): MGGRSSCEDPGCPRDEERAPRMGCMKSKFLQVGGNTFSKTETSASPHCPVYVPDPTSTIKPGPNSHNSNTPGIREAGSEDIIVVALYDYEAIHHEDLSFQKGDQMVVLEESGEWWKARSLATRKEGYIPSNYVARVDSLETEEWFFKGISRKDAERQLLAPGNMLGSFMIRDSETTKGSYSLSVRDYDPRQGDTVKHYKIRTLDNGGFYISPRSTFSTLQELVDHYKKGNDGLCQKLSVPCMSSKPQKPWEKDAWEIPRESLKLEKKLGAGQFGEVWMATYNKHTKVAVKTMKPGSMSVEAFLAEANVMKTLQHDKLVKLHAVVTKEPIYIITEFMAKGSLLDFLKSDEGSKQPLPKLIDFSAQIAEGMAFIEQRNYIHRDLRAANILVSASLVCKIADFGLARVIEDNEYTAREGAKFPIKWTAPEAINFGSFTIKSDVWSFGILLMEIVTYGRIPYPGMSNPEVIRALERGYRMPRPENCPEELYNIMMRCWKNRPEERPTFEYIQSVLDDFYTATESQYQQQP

Sequence | phosphorylation enrichment
IRKVLYANNVM [ACTA1_Y296_D294V] | 0.297
LERFIYNRQEF [HLA-DPB1_Y59_E62Q_YF] | 0.77
ATDLAYFLVRK [ASL_Y375_YF] | 0.686
QRRLIYRCQVG [NR2E3_Y81_R76Q] | 0.629
ARRMEYLASQK [FGFR2_Y616_G613R] | 0.333
SDYYAYSPVRE [H6PD_Y449] | 8.79
SHMVNYQPYRK [TEX37_Y25_D24N] | 0.396
GEDLSYGDVPP [IRS1_Y151] | 0.556
VLRRVYVDFEG [KMT2B_Y1707] | 0.502
MFRAGYDTKQE [F10_Y407_C404R] | 0.383
DSSIRYLQEIY [FGG_Y135] | 0.948
PLDGEYFTLRI [TP53_Y327_Q331R] | 1.76
HRGCLYLAIEF [TEK_Y899_Y897C_YF] | 0.367
LESILYESSVV [TRPV4_Y91_T89I] | 1.65
IGVGSYSVCKR [RPS6KA3_Y433] | 0.383
LPKVSYMKAID [GLRA1_Y307_V308M] | 0.406
PPPELYFVKVD [TERT_Y707] | 1.4

Sequence | phosphorylation enrichment
YYSSEYHCVGG [CTSC_Y345_Y347C] | 2.58
DKMEAYNINET [TEKT4_Y210_D213N] | 0.535
NRLTDYFEPLL [BBS10_Y536_YF] | 0.548
KENITYMKSEQ [L1TD1_Y24_R27S] | 0.457
QLLIEYPPEEV [ZZZ3_Y670_K669E] | 0.534
MRAIIYNSSTA [PLEKHA7_Y243_L241I] | 0.501
LQRVQCDLQKA [DSP_Y1512_Y1512C] | 0.812
RLLVVYPWNQR [HBB_Y36_T39N] | 0.431
CLRIDYERVSQ [DSP_Y1542_R1537C] | 0.631
SSSGGYGGGFG [KRT19_Y61_A60G_YF] | 0.35
LVMFFYAIFGM [SCN1A_Y1684_I1683F] | 0.446
KELAPYDENWF [RPS19_Y48] | 0.517
ESPGLCGFLNV [BCR_Y910_Y910C] | 0.487
CSRRFYQLTKL [AR_Y858] | 0.507
QRRNVYFFSFL [PTEN_Y176_Y174N_YF] | 0.34
LGKLIYPVGFW [NTHL1_Y177] | 0.746
